Experimental data published in patent publication US20070014776A1, “Identification of adiponutrin-related proteins as esterases and methods of use for the same” (priority 2005, published 2007).

Legend:
3T3-L1 adipocytes = assay: Effect of adiponutrin overexpression on 3T3-L1 lipase activity (free fatty acid and glycerol release); assay type: cell-based, mouse
Description: For adenovirus infection, 3T3-L1 cells were cultured in DMEM with 10% FBS at 37° C. with 5% CO2. Two days after the cultures were confluent, the cells were induced to differentiate (defined as day 0) by incubation in DMEM supplemented with 10% FBS, 1 μM dexamethasone (Sigma, St. Louis, Mo.), 0.5 mM isobutylmethylxanthine (Sigma) (MIX), and 1 μg/ml insulin (Sigma). After two days, the medium was replaced with DMEM supplemented with 10% FBS and 1 μg/ml insulin, and cells were then fed every 2 days with the same medium. At day 8 of differentiation, cells grown in 24-well plates were incubated with 500 MOI of adenovirus in OPTI-MEM (Invitrogen, Carlsbad, Calif.) for 2 hours and then DMEM with 10% FBS. After 48 hours, cells were incubated with DMEM with no serum overnight. The next day, cells were washed three times with PBS and incubated with PBS with 2% fatty acid-free BSA (Sigma, St. Louis, Mo.) with 10 μM or 100 nM of isoproterenol (Sigma). When needed, cells were preincubated with 100 nM insulin 30 min prior to isoproterenol treatment. Conditioned medium was taken at the indicated 0-4 hours after isoproterenol treatment and analyzed for free fatty acids and glycerol. Free fatty acids release was measured by using a NEFA-c kit (Wako Chemicals, Richmond, Va.) and glycerol release was measured by using a lipolysis kit (Zen-bio, Research Triangle Park, N.C.).

[1] = Lipase assay with DGGR substrate on immunoprecipitated V5-tagged proteins; assay type: biochemical; details: V5-tagged WT vs patatin-like domain mutant (Ser of GXSXG to Ala); FIG. 6
Description: HEK293 cells were grown in DMEM media supplemented with 10% fetal calf serum at 37° C. in an atmosphere of 5% CO2. Ten cm tissue culture dishes with 90% confluent HEK293 cells were transfected using Lipofectamine 2000 according to the manufacturer's instructions (Invitrogen, Carlsbad, Calif.). Ten μg of plasmid DNA containing the following expression constructs were used: GFP, human adiponutrin, human adiponutrin-c-term-V5, human desnutrin/ATGL-c-term-V5-6His, human GS2-c-term-V5, human GS2-like-c-term-V5-6His, and patatin-like domain mutants of c-term-V5 and c-term-V5-6His tagged constructs. Three days post-transfection, cells were washed with ice cold TBS and harvested. Cells were pelleted by centrifugation at 1000×g for 5 minutes. Supernatant was discarded, and pellets stored at −80° C. until used for assays.
Frozen cells, as described above, were resuspended in 1 ml of lipase reaction buffer (20 mM Tris-HCl, pH 8.0, 150 mM NaCl, 0.53% sodium taurodeoxycholate, 1.33 mM CaCl2) containing complete mini-protein inhibitor tablets (Invitrogen, Carlsbad, Calif.; 1 tablet per 7 ml). The resulting suspensions were then sonicated on ice with 4 bursts of 10 seconds from a probe sonicator. Homogenized lysate was then centrifuged at 1000×g for 10 minutes to remove cell debris. A 50 μl aliquot of the resulting lysate was saved for analysis and the remaining lysate was used for the immunoprecipitation. Anti-V5 mouse monoclonal antibody (7.2 μg; Invitrogen, Carlsbad, Calif.) was added to each lysate and then placed at 4° C. overnight with tumbling. Next, 20 μl of protein-A beads (Repligen) was added to each sample and tumbled at 4° C. for 2 hours. Beads were then pelleted with gentle centrifugation and […] of supernatant was saved for analysis. The beads were washed 4 times with 900 μl of lipase reaction buffer followed by resuspension in 100 μl of lipase reaction buffer.
The lipase assay (Lehner and Verger (1997) Biochemistry 36:1861-68) uses 1,2-o-dilauryl-rac-glycero-3-glutaric acid-(6′-methylresorufin) ester (DGGR) as substrate. DGGR is cleaved by lipase, resulting in an unstable dicarbonic acid ester that is spontaneously hydrolyzed to yield glutaric acid and methylresorufin, a bluish-purple chromophore with peak absorption at 581 nm. The rate of methylresorufin formation is directly proportional to the lipase activity in the sample. Ten μl of whole cell lysate or IP beads were added to the wells of a 96-well plate. After diluting the samples up to 125 μl in lipase reaction buffer, 125 μl of reaction buffer containing DGGR (final concentration 36 μg/ml in a final assay volume of 250 μl per well). After mixing, OD 581 was monitored at 5 minute intervals for 2 hours to assess lipase activity. Lipase activity is plotted as delta-OD 581/sec. […]

HEK293 cells = assay: [1-14C]-oleic acid incorporation into triglyceride in transfected HEK293 cells; assay type: cell-based; details: overexpression in HEK293 cells; for intracellular triglycerides: compared to control cells (empty vector), FIG. 7
Description: HEK293 cells were cultured in Dulbecco's modified Eagle's medium (DMEM) that contained 10% FBS at 37° C. with 5% CO2. HEK293 cells grown in 12-well plates to 60-70% confluence were transfected with 0.5 μg of human adiponutrin, desnutrin/ATGL, GS2, or GS2-like expression vector using FuGene (Roche). Empty vector, pADORI1.2 was used as a control. After 48 hours, cells were treated with 4 μM [1-^14C]-oleic acid (204 μCi/ml total; Perkin Elmer) and 16 μM cold oleic acid (Sigma) in serum-free DMEM. After 4 hours, cells were washed twice and incubated further with DMEM with 10% FBS. After 16 hours, lipids were extracted and separated by TLC using hexane/ether/acetic acid (80:20:1). Radioactive lipids were detected and quantitated by Molecular Imager FX (Bio-Rad).

[2] = adenoviral overexpression in 3T3-L1 adipocytes, after treatment with 10 μM isoproterenol, vs GFP, FIG. 8

Molecule: insulin [reference compound]
- isoproterenol-stimulated lipolysis (3T3-L1 adipocytes; submaximal isoproterenol, preincubation with 100 nM insulin, FIG. 9): decreased

B1: adiponutrin: human adiponutrin protein, SEQ ID NO:2; patatin-like domain protein of the adiponutrin family, expressed recombinantly (protein, listed as Homo sapiens)
chain: MYDAERGWSLSFAGCGFLGFYHVGATRCLSEHAPHLLRDARMLFGASAGALHCVGVLSGIPLEQTLQVLSDLVRKARSRNIGIFHPSFNLSKFLRQGLGKCLPANVHQLISGKIGISLTRVSDGENVLVSDFRSKDEVVDALVCSCFMPFYSGLIPPSFRGVRYVDGGVSDNVPFIDAKTTITVSPFYGEYDICPKVKSTNFLHVDITKLSLRLCTGNLYLLSRAFVPPDLKVLGEICLRGYLDAFRFLEEKGICNRPQPGLKSSSEGMDPEVAMPSWANMSLDSSPESAALAVRLEGDELLDHLRLSILPWDESILDTLSPRLATALSEEMKDKGGYMSKICNLLPIRIMSYVMLPCTLPVESAIAIVQRLVTWLPDMPDDVLWLQWVTSQVFTRVLMCLLPASRSQMPVSSQQASPCTPEQDWPCWTPCSPEGCPAETKAEATPRSILRSSLNFFLGNKVPAGAEGLSTFPSFSLEKSL
- rate of lipid hydrolysis, wild-type versus active-site serine to alanine mutant [1]: significantly higher
- intracellular triglycerides (HEK293 cells): unable to demonstrate a decrease
- triglyceride incorporation (HEK293 cells; in several experiments (data not shown)): trend toward increased triglyceride incorporation
- release of free fatty acids into the medium (3T3-L1 adipocytes; [2]): significantly decreased
- release of glycerol into the medium (3T3-L1 adipocytes; [2]): significantly decreased
- basal lipolysis (3T3-L1 adipocytes; adenoviral overexpression in 3T3-L1 adipocytes, no isoproterenol, FIG. 9): no effect
- inhibition of lipolysis by insulin (3T3-L1 adipocytes; adenoviral overexpression in 3T3-L1 adipocytes, submaximal isoproterenol plus insulin, FIG. 9): significantly enhanced

B2: desnutrin/ATGL: human desnutrin/adipocyte triglyceride lipase protein, SEQ ID NO:5 (protein, listed as Homo sapiens)
chain: MFPREKTWNISFAGCGFLGVYYVGVASCLREHAPFLVANATHIYGASAGALTATALVTGVCLGEAGAKFIEVSKEARKRFLGPLHPSFNLVKIIRSFLLKVLPADSHEHASGRLGISLTRVSDGENVIISHFNSKDELIQANVCSGFIPVYCGLIPPSLQGVRYVDGGISDNLPLYELKNTITVSPFSGESDICPQDSSTNIHELRVTNTSIQFNLRNLYRLSKALFPPEPLVLREMCKQGYRDGLRFLQRNGLLNRPNPLLALPPARPHGPEDKDQAVESAQAEDYSQLPGEDHILEHLPARLNEALLEACVEPTDLLTTLSNMLPVRLATAMMVPYTLPLESALSFTIRLLEWLPDVPEDIRWMKEQTGSICQYLVMRAKRKLGRHLPSRLPEQVELRRVQSLPSVPLSCAAYREALPGWMRNNLSLGDALAKWEECQRQLLLGLFCTNVAFPPEALRMRAPADPAPAPADPASPQHQPAGPAPLLSTPAPEARPVIGALGL
- rate of lipid hydrolysis, wild-type versus active-site serine to alanine mutant [1]: significantly higher
- intracellular triglycerides (HEK293 cells): significant decrease

B3: GS2: human GS2 protein, SEQ ID NO:8; adiponutrin family member (protein, listed as Homo sapiens)
chain: MKHINLSFAACGFLGIYHLGAASALCRHGKKLVKDVKAFAGASAGSLVASVLLTAPEKIEECNQFTYKFAEEIRRQSFGAVTPGYDFMARLRSGMESILPPSAHELAQNRLHVSITNAKTRENHLVSTFSSREDLIKVLLASSFVPIYAGLKLVEYKGQKWVDGGLTNALPILPVGRTVTISPFSGRLDISPQDKGQLDLYVNIAKQDIMLSLANLVRLNQALFPPSKRKMESLYQCGFDDTVKFLLKENWFE
- rate of lipid hydrolysis, wild-type versus active-site serine to alanine mutant [1]: significantly higher
- intracellular triglycerides (HEK293 cells): decreased intracellular triglycerides significantly

B4: GS2-like: human GS2-like protein, SEQ ID NO:11; adiponutrin family member (protein, listed as Homo sapiens)
chain: MGFLEEEGRWNLSFSGAGYLGAHHVGATECLRQRAPRLLQGARRIYGSSSGALNAVSIVCGKSVDFCCSHLLGMVGQLERLSLSILHPAYAPIEHVKQQLQDALPPDAHVLASQRLGISLTRWPDGRNFLVTDFATCDELIQALVCTLYFPFYCGLIPPEFRGERYIDGALSNNLPFADCPSTITVSPFHGTVDICPQSTSPNLHELNVFNFSFQISTENFFLGLICLIPPSLEVVADNCRQGYLDALRFLERRGLTKEPVLWTLVSKEPPAPADGNWDAGCDQRWKGGLSLNWKVPHVQVKDVPNFEQLSPELEAALKKACTRDPSRWARFWHSGPGQVLTYLLLPCTLPFEYIYFRSRRLVVWLPDVPADLWWMQGLLRNMALEVFSRTKAQLLGPISPPATRVLETSPLQPQIAPHREELGPTHQA
- rate of lipid hydrolysis, wild-type versus active-site serine to alanine mutant [1]: not affected
- intracellular triglycerides (HEK293 cells): decreased intracellular triglycerides significantly
